Data as given in the array DNA melting data of Ke et al..

Experiment: melting temperature; melt of duplexes
Details: sodium 0.0675 M; strand 1 µM

Substance	Tm
CGACGTGCTCGATGTGCTG+CAGCACATGGTGCACGTCG ((((((((.(.((((((((+)))))))).).))))))))	49.7 °C
CGACGTGCTCGATGTGCTG+CAGCACATGTAGCACGTCG (((((((((..((((((((+))))))))..)))))))))	52.3 °C
CGACGTGCTCGATGTGCTG+CAGCACATGTGGCACGTCG ((((((((...((((((((+))))))))...))))))))	50.7 °C
CGACGTGCTCGATGTGCTG+CAGCACATGTTGCACGTCG ((((((((...((((((((+))))))))...))))))))	49.5 °C
CGACGTGCTCGATGTGCTG+CAGCACATTACGCACGTCG ((((((((...((((((((+))))))))...))))))))	48.6 °C
CGACGTGCTCGATGTGCTG+CAGCACATTATGCACGTCG ((((((((...((((((((+))))))))...))))))))	49.6 °C
CGACGTGCTCGATGTGCTG+CAGCACATTCAGCACGTCG (((((((((..((((((((+))))))))..)))))))))	51.9 °C
CGACGTGCTCGATGTGCTG+CAGCACATTGTGCACGTCG ((((((((.(.((((((((+)))))))).).))))))))	51.5 °C
CGACGTGCTCTATGTGCTG+CAGCACATAACGCACGTCG ((((((((..(((((((((+)))))))))..))))))))	49.7 °C
CGACGTGCTCTATGTGCTG+CAGCACATACAGCACGTCG (((((((((.(((((((((+))))))))).)))))))))	52.5 °C
CGACGTGCTCTATGTGCTG+CAGCACATACTGCACGTCG ((((((((..(((((((((+)))))))))..))))))))	49.5 °C
CGACGTGCTCTATGTGCTG+CAGCACATCAAGCACGTCG (((((((((..((((((((+))))))))..)))))))))	51.1 °C
CGACGTGCTCTATGTGCTG+CAGCACATCCCGCACGTCG ((((((((...((((((((+))))))))...))))))))	47.5 °C
CGACGTGCTCTATGTGCTG+CAGCACATCCGGCACGTCG ((((((((...((((((((+))))))))...))))))))	48.4 °C
CGACGTGCTCTATGTGCTG+CAGCACATCCTGCACGTCG ((((((((...((((((((+))))))))...))))))))	47.8 °C
CGACGTGCTCTATGTGCTG+CAGCACATCGTGCACGTCG ((((((((.(.((((((((+)))))))).).))))))))	45.2 °C
CGACGTGCTCTATGTGCTG+CAGCACATCTCGCACGTCG ((((((((...((((((((+))))))))...))))))))	47.1 °C
CGACGTGCTCTATGTGCTG+CAGCACATGATGCACGTCG ((((((((...((((((((+))))))))...))))))))	51.1 °C
CGACGTGCTCTATGTGCTG+CAGCACATGCTGCACGTCG ((((((((...((((((((+))))))))...))))))))	47 °C
CGACGTGCTCTATGTGCTG+CAGCACATGTAGCACGTCG (((((((((..((((((((+))))))))..)))))))))	52.3 °C
CGACGTGCTCTATGTGCTG+CAGCACATGTCGCACGTCG ((((((((...((((((((+))))))))...))))))))	48.1 °C
CGACGTGCTCTATGTGCTG+CAGCACATGTGGCACGTCG ((((((((...((((((((+))))))))...))))))))	50.4 °C
CGACGTGCTCTATGTGCTG+CAGCACATTCTGCACGTCG ((((((((...((((((((+))))))))...))))))))	47.8 °C
CGACGTGCTCTATGTGCTG+CAGCACATTGGGCACGTCG ((((((((.(.((((((((+)))))))).).))))))))	53.4 °C

Substance	Tm
CGACGTGCTCTATGTGCTG+CAGCACATTGTGCACGTCG ((((((((.(.((((((((+)))))))).).))))))))	48.3 °C
CGACGTGCTCTATGTGCTG+CAGCACATTTAGCACGTCG (((((((((..((((((((+))))))))..)))))))))	51 °C
CGACGTGCTCTATGTGCTG+CAGCACATTTCGCACGTCG ((((((((...((((((((+))))))))...))))))))	47.3 °C
CGACGTGCTGAATGTGCTG+CAGCACATAACGCACGTCG ((((((((...((((((((+))))))))...))))))))	50 °C
CGACGTGCTGAATGTGCTG+CAGCACATAATGCACGTCG ((((((((...((((((((+))))))))...))))))))	51 °C
CGACGTGCTGAATGTGCTG+CAGCACATACGGCACGTCG ((((((((.(.((((((((+)))))))).).))))))))	54.1 °C
CGACGTGCTGAATGTGCTG+CAGCACATACTGCACGTCG ((((((((.(.((((((((+)))))))).).))))))))	53.7 °C
CGACGTGCTGAATGTGCTG+CAGCACATAGAGCACGTCG (((((((((..((((((((+))))))))..)))))))))	52.2 °C
CGACGTGCTGAATGTGCTG+CAGCACATAGCGCACGTCG ((((((((...((((((((+))))))))...))))))))	48.3 °C
CGACGTGCTGAATGTGCTG+CAGCACATATAGCACGTCG (((((((((..((((((((+))))))))..)))))))))	53.7 °C
CGACGTGCTGAATGTGCTG+CAGCACATCATGCACGTCG ((((((((...((((((((+))))))))...))))))))	53.1 °C
CGACGTGCTGAATGTGCTG+CAGCACATCTAGCACGTCG (((((((((..((((((((+))))))))..)))))))))	53 °C
CGACGTGCTGAATGTGCTG+CAGCACATCTGGCACGTCG ((((((((...((((((((+))))))))...))))))))	51.7 °C
CGACGTGCTGAATGTGCTG+CAGCACATGATGCACGTCG ((((((((...((((((((+))))))))...))))))))	55.2 °C
CGACGTGCTGAATGTGCTG+CAGCACATGCGGCACGTCG ((((((((.(.((((((((+)))))))).).))))))))	55.3 °C
CGACGTGCTGAATGTGCTG+CAGCACATGGCGCACGTCG ((((((((...((((((((+))))))))...))))))))	52.3 °C
CGACGTGCTGAATGTGCTG+CAGCACATGGTGCACGTCG ((((((((...((((((((+))))))))...))))))))	50.9 °C
CGACGTGCTGAATGTGCTG+CAGCACATGTCGCACGTCG ((((((((...((((((((+))))))))...))))))))	52.1 °C
CGACGTGCTGAATGTGCTG+CAGCACATTACGCACGTCG ((((((((..(((((((((+)))))))))..))))))))	52.7 °C
CGACGTGCTGAATGTGCTG+CAGCACATTCGGCACGTCG ((((((((.((((((((((+)))))))))).))))))))	60.6 °C
CGACGTGCTGAATGTGCTG+CAGCACATTGAGCACGTCG (((((((((.(((((((((+))))))))).)))))))))	56.6 °C
CGACGTGCTGAATGTGCTG+CAGCACATTGGGCACGTCG ((((((((..(((((((((+)))))))))..))))))))	53.8 °C
CGACGTGCTGAATGTGCTG+CAGCACATTTCGCACGTCG ((((((((..(((((((((+)))))))))..))))))))	53.1 °C
CGACGTGCTGCATGTGCTG+CAGCACATAATGCACGTCG ((((((((...((((((((+))))))))...))))))))	50.7 °C

Substance	Tm
CGACGTGCTGCATGTGCTG+CAGCACATACAGCACGTCG ((((((((((.((((((((+)))))))).))))))))))	58.2 °C
CGACGTGCTGCATGTGCTG+CAGCACATACGGCACGTCG ((((((((.(.((((((((+)))))))).).))))))))	53.6 °C
CGACGTGCTGCATGTGCTG+CAGCACATACTGCACGTCG ((((((((.(.((((((((+)))))))).).))))))))	53 °C
CGACGTGCTGCATGTGCTG+CAGCACATCCCGCACGTCG ((((((((.(.((((((((+)))))))).).))))))))	49.9 °C
CGACGTGCTGCATGTGCTG+CAGCACATCCGGCACGTCG ((((((((.(.((((((((+)))))))).).))))))))	51.9 °C
CGACGTGCTGCATGTGCTG+CAGCACATCTAGCACGTCG (((((((((..((((((((+))))))))..)))))))))	52.4 °C
CGACGTGCTGCATGTGCTG+CAGCACATCTCGCACGTCG ((((((((...((((((((+))))))))...))))))))	49.2 °C
CGACGTGCTGCATGTGCTG+CAGCACATGAGGCACGTCG ((((((((..(((((((((+)))))))))..))))))))	56.8 °C
CGACGTGCTGCATGTGCTG+CAGCACATGCGGCACGTCG ((((((((.((((((((((+)))))))))).))))))))	63 °C
CGACGTGCTGCATGTGCTG+CAGCACATGGAGCACGTCG (((((((((.(((((((((+))))))))).)))))))))	61.2 °C
CGACGTGCTGCATGTGCTG+CAGCACATTACGCACGTCG ((((((((...((((((((+))))))))...))))))))	48.2 °C
CGACGTGCTGCATGTGCTG+CAGCACATTCAGCACGTCG ((((((((((.((((((((+)))))))).))))))))))	57 °C
CGACGTGCTGCATGTGCTG+CAGCACATTCCGCACGTCG ((((((((.(.((((((((+)))))))).).))))))))	49.3 °C
CGACGTGCTGCATGTGCTG+CAGCACATTCGGCACGTCG ((((((((.(.((((((((+)))))))).).))))))))	53.2 °C
CGACGTGCTGCATGTGCTG+CAGCACATTCTGCACGTCG ((((((((.(.((((((((+)))))))).).))))))))	51.8 °C
CGACGTGCTGCATGTGCTG+CAGCACATTGAGCACGTCG (((((((((..((((((((+))))))))..)))))))))	52.2 °C
CGACGTGCTGCATGTGCTG+CAGCACATTGCGCACGTCG ((((((((...((((((((+))))))))...))))))))	53.5 °C
CGACGTGCTGCATGTGCTG+CAGCACATTGGGCACGTCG ((((((((...((((((((+))))))))...))))))))	50.1 °C
CGACGTGCTGCATGTGCTG+CAGCACATTTAGCACGTCG (((((((((..((((((((+))))))))..)))))))))	51 °C
CGACGTGCTGGATGTGCTG+CAGCACATAATGCACGTCG ((((((((...((((((((+))))))))...))))))))	50.7 °C
CGACGTGCTGGATGTGCTG+CAGCACATACTGCACGTCG ((((((((.(.((((((((+)))))))).).))))))))	56.3 °C
CGACGTGCTGGATGTGCTG+CAGCACATAGCGCACGTCG ((((((((...((((((((+))))))))...))))))))	49.3 °C
CGACGTGCTGGATGTGCTG+CAGCACATAGTGCACGTCG ((((((((...((((((((+))))))))...))))))))	45 °C
CGACGTGCTGGATGTGCTG+CAGCACATCCGGCACGTCG ((((((((.((((((((((+)))))))))).))))))))	62.9 °C
